# Measured values: patent US20260152527A1 (SIGHTSTREAM BIOTHERAPEUTICS, published 2026)
# Starred links: 1 amine or outer side, 2 acyl side, 3 side chain; linkers in the order of their positions; H or OH if unused. Positions of bridges follow the written chain, without caps; N, C: chain ends. Non-standard residues stand in square brackets, D forms with d. Primed or numbered codes have the meaning given here. *: point of attachment. Hgln = homoglutamine, NC(=O)CCC[C@H](N[*:1])C(=O)[*:2]; Benzoyl(3,5-(OH)2) = O=C(c1cc(O)cc(O)c1)*; Lys(N3) = [N-]=[N+]=NCCCC[C@H](N)C(=O)O; dPhe(4-F) = N[C@H](Cc1ccc(F)cc1)C(=O)O; Acetyl(4-pyridyl) = O=C(Cc1ccncc1)*; R8 = C=CCCCCCC[C@@](C)(N)C(=O)O; PEG8′ = polyethylene glycol-8; S5 = C=CCCC[C@](C)(N)C(=O)O; Nle = CCCC[C@H](N)C(=O)O; Octanoyl = CCCCCCCC(=O)*; Pra = C#CC[C@H](N)C(=O)O
# B1: KR-017 (peptide)
# peptide: {Octanoyl-PEG8′}-GGSYSMEHFRWGKPV-NH2
# B2: KR-008 (peptide)
# peptide: Ac-[Nle][Lys(N3)]HFRW[Pra]-NH2
# modifications: triazole 2-7
# B3: KR-073 (peptide)
# peptide: {Benzoyl(3,5-(OH)2)}-[Nle][Lys(N3)]H[dF]RW[Pra]-NH2
# modifications: triazole 2-7; not fully specified; printed as HyBA-Nle-[Lys(N3)-His-DPhe-Arg-Trp-Pra]-NH2
# B4: KR-009 (peptide)
# peptide: Ac-[Nle][Lys(N3)]H[dF]RW[Pra]-NH2
# modifications: bridge 2-7; not fully specified (bridges); printed as Ac-Nle-[Lys(N3)-His-DPhe-Arg-Trp-Pra]-NH2
# B5: KR-074 (peptide)
# peptide: {Acetyl(4-pyridyl)}-[Nle][Lys(N3)]H[dF]RW[Pra]-NH2
# modifications: triazole 2-7; not fully specified; printed as PyAA-Nle-[Lys(N3)-His-DPhe-Arg-Trp-Pra]-NH2
# B6: KR-002 (peptide)
# peptide: Ac-SMEHFRWGKPV-NH2
# B7: KR-010 (peptide)
# peptide: Ac-[Lys(N3)]EHFRWG[Pra]-NH2
# modifications: triazole 1-8
# B8: KR-015 (peptide)
# peptide: Ac-[R8]EHFRWG[S5]-NH2
# modifications: staple 1-8
# SMILES: CC(=O)N[C@]1(C)CCCCCCC=CCCC[C@@](C)(C(N)=O)NC(=O)CNC(=O)[C@H](Cc2c[nH]c3ccccc23)NC(=O)[C@H](CCCNC(=N)N)NC(=O)[C@H](Cc2ccccc2)NC(=O)[C@H](Cc2c[nH]cn2)NC(=O)[C@H](CCC(=O)O)NC1=O
# B9: KR-072 (peptide)
# peptide: {Benzoyl(3,5-(OH)2)}-[Nle][Lys(N3)]H[dPhe(4-F)]RW[Pra]-NH2
# modifications: triazole 2-7; not fully specified; printed as HyBA-Nle-[Lys(N3)-His-Dphe(4-F)-Arg-Trp-Pra]-NH2
# B10: KR-071 (peptide)
# peptide: {Benzoyl(3,5-(OH)2)}-[Nle][Lys(N3)]H[dPhe(4-F)]RW[Pra][Hgln]-NH2
# modifications: triazole 2-7; not fully specified; printed as HyBA-Nle-[Lys(N3)-His-Dphe(4-F)-Arg-Trp-Pra]-Hgln-NH2
# B11: KR-049 (peptide)
# peptide: Ac-[Nle][Lys(N3)]H[dPhe(4-F)]RW[Pra]-NH2
# modifications: triazole 2-7
# Molecular target: T1, human recombinant MC1R (CHO-K1 stable cell line, GenScript) (human, UniProt Q01726 1-317)
# Assay: cell-based or functional assay
# T1 sequence (Q01726 whole entry): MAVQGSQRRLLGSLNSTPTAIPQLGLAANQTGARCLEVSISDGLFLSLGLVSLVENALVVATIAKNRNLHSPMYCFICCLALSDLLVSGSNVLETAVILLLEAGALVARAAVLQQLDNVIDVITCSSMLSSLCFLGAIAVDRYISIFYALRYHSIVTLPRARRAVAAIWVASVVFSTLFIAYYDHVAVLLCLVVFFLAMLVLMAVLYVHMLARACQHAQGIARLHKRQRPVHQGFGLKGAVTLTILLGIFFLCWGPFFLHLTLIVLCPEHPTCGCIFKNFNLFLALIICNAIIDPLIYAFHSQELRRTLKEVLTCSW
row,Binder,MC1R IC50 [nM]
1,B1,0.77
2,B2,0.4
3,B3,0.0041
4,B4,0.0109
5,B5,0.023
6,B6,0.44
7,B7,170
8,B8,25.8
9,B9,0.0019
10,B10,0.0023
11,B11,0.019

# Molecular target: human recombinant MC3R (CHO-K1/Gα15 stable cell line, GenScript) (human, UniProt P41968 1-323)
# Assay: cell-based or functional assay
# Sequence of human recombinant MC3R (CHO-K1/Gα15 stable cell line, GenScript) (P41968 whole entry): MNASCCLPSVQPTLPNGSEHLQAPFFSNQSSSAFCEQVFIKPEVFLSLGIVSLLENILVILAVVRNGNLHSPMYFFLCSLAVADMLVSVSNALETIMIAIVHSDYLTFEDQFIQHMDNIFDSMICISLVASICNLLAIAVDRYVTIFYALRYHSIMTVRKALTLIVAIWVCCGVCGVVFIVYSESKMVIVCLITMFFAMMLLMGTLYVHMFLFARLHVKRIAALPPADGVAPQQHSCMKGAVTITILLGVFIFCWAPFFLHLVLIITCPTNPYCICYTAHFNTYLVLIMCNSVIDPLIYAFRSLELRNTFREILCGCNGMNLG
row,Binder,MC3R IC50 [nM]
1,B1,310
2,B2,1110
3,B5,165
4,B6,176
5,B7,13600
6,B8,3000

# Molecular target: T2, human recombinant MC4R (CHO-K1/Gα15 stable cell line, GenScript) (human, UniProt P32245 1-332)
# Assay: cell-based or functional assay
# T2 sequence (P32245 whole entry): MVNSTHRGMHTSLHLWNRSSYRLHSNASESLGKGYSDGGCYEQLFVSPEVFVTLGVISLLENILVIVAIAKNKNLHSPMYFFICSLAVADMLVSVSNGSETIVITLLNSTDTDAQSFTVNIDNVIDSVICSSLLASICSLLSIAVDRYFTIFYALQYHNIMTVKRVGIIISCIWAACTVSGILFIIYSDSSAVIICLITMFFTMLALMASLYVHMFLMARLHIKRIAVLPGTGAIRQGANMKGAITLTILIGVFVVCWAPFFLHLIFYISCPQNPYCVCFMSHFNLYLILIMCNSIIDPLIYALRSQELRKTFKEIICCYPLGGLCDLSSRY
row,Binder,MC4R IC50 [nM]
1,B1,139
2,B2,74.5
3,B3,13.9
4,B4,45.7
5,B5,20.2
6,B6,34.9
7,B7,452
8,B8,485
9,B9,98.6
10,B10,103
11,B11,16.1

# Molecular target: T3, human recombinant MC5R (CHO-K1/Ga15 stable cell line, GenScript) (human, UniProt P33032 1-325)
# Assay: cell-based or functional assay
# T3 sequence (P33032 whole entry): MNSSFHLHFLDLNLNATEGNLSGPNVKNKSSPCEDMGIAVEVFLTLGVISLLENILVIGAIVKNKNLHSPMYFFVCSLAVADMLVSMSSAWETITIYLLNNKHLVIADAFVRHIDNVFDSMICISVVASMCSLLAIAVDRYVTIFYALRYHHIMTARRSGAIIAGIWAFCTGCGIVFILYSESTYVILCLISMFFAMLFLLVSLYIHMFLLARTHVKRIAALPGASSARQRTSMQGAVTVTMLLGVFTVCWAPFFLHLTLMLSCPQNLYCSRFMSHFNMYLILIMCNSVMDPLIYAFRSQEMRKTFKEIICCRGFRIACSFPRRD
row,Binder,MC5R IC50 [nM]
1,B1,210
2,B2,> 10000
3,B3,134
4,B4,140
5,B5,154
6,B6,243
7,B7,> 10000
8,B8,> 10000
9,B9,78
10,B10,73.9
11,B11,25.2

# Molecular target: T1, human recombinant MC1R (CHO-K1 stable …)
# Assay: cell-based or functional assay
# Remark: another data set of the same source
row,Binder,EC50(nM)-MC1R [nM]
1,B3,0.0041
2,B4,0.011
3,B9,0.0019
4,B10,0.0023
5,B11,0.019

# Molecular target: T2, human recombinant MC4R (CHO-K1/Gα15 …)
# Assay: cell-based or functional assay
# Remark: another data set of the same source
row,Binder,EC50(nM)-MC4R [nM]
1,B3,13.9
2,B4,45.7
3,B9,98.6
4,B10,103
5,B11,16.1

# Molecular target: T3, human recombinant MC5R (CHO-K1/Ga15 …)
# Assay: cell-based or functional assay
# Remark: another data set of the same source
row,Binder,EC50(nM)-MC5R [nM]
1,B3,134
2,B4,140
3,B9,78
4,B10,73.9
5,B11,25.2
